Data taken from US20230383009A1 (CARIBOU BIOSCIENCES, published 2023).

B1: anti-ROR1 scFv-mouse Fc fusion (scFv of clone 2H6) (Fc fusion)
scFv: VKLVESGGGLVKPGGSLKLSCAASGFTFSTYAMSWVRQTPEKRLEWVASISSGGNTYYPDSVKGRFTISRDNARHILYLQMSSLRSEDTAMYYCARDSYYFGNSVYYAMDYWGQGTSVTVSSGGGGSGGGGSGGGGSDIKMTQSPSSMYASLGERVTITCKASQDINSYFSWFQQKPGKSPKTLIYRANRLVDGVPSRFSGSGSGQDYSLTISSLEYEDMGIYYCLQYDEFPYTFGGGTKLEIKR
notes: Used as the primary antibody in the Western blot. scFv is VH-(G4S)3-VL; The mouse Fc part is not described; also called anti-ROR1 scFv (mouse clone 2H6); not shown: mouse Fc
B2: mouse monoclonal anti-ROR1 antibody, hybridoma clone 2H6 (antibody, V domains shown)
VH: VKLVESGGGLVKPGGSLKLSCAASGFTFSTYAMSWVRQTPEKRLEWVASISSGGNTYYPDSVKGRFTISRDNARHILYLQMSSLRSEDTAMYYCARDSYYFGNSVYYAMDYWGQGTSVTVSS
VL: DIKMTQSPSSMYASLGERVTITCKASQDINSYFSWFQQKPGKSPKTLIYRANRLVDGVPSRFSGSGSGQDYSLTISSLEYEDMGIYYCLQYDEFPYTFGGGTKLEIKR
notes: Hybridoma antibody, mouse IgG1 type; also called mouse anti-ROR1 antibody (IgG1 type); mouse anti-ROR1 monoclonal antibody

Assays:
[1] = molecular target: T1, ROR1 extracellular domain fused to human Fc (hFc) protein (human, UniProt Q01973 30-406); experiment: Western blot, anti-ROR1 scFv-mouse Fc fusion as primary antibody, anti-mouse IgG-HRP as secondary
T1 construct: extracellular domain; also called ROR1-human Fc fusion protein; human ROR1 antigen; not shown: human Fc (hFc)
T1 sequence (Q01973 30-406): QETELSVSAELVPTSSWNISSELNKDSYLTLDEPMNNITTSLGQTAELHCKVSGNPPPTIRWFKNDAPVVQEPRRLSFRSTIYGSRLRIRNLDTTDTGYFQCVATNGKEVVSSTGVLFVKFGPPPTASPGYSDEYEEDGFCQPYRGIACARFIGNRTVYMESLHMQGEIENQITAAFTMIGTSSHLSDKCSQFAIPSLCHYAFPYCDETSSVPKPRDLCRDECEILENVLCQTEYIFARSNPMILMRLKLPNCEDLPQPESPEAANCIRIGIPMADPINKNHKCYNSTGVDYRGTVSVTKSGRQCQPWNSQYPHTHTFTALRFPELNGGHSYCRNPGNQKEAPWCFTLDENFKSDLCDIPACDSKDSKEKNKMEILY
Text: In this example, we generated a mouse monoclonal anti-ROR1 antibody using standard hybridoma technology. The mouse anti-ROR1 antibody (IgG1 type) detected extracellular ROR1 protein by ELISA (data not shown). We sequenced this hybridoma clone 2H6 and generated an scFv using VH and VL (see further in Example 2). […] The ROR1-human Fc fusion protein was detected with an antibody directed against the human Fc domain.

[2] = molecular target: T2, extracellular ROR1 protein (human, UniProt Q01973 30-406); experiment: ELISA
T2 construct: extracellular domain
T2 sequence (Q01973 30-406): as above

[3] = molecular target: T3, ROR1 on human cancer cell lines (HepG2, MDA231, HT-29, SKOV-3) (human, UniProt Q01973 30-937); experiment: flow cytometry (FACS) on cancer cell lines
T3 construct: whole, on cells; Endogenous ROR1 of tumour cell lines, not transfected cells; also called ROR1-positive cells; ROR1-expressing cell line SKOV-3
T3 sequence (Q01973 30-937): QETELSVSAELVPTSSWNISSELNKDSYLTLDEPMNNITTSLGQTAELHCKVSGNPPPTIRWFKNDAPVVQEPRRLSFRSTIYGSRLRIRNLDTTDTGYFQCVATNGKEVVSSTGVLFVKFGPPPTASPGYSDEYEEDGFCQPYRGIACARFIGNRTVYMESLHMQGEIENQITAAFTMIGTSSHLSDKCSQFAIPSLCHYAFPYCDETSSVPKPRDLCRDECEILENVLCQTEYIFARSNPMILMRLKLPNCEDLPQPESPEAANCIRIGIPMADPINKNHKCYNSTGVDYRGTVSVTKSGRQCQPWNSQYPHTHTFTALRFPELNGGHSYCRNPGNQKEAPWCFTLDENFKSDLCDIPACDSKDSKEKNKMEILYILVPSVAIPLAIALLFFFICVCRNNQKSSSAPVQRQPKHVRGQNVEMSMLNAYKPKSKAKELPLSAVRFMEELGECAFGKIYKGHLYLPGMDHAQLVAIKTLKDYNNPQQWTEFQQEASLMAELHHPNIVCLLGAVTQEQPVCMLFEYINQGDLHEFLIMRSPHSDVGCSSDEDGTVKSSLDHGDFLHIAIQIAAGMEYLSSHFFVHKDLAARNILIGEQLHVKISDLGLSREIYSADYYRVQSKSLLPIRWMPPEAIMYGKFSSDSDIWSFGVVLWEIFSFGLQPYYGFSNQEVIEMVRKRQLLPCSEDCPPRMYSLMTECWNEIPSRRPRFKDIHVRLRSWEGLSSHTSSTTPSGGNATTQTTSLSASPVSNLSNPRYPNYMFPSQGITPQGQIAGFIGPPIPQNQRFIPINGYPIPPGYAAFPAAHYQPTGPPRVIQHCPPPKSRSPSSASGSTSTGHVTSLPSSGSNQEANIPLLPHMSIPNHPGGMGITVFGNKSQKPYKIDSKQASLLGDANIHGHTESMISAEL
Text: Normal keratinocytes were used as a negative control (FIG. 4). (MFI: […] compared to the isotype).

Binder	binding result [1]	binding result [2]	binding result [3]
B1	binds	–	–
B2	–	binds	binds
